The supplement of paper PMC7125110
± gives the standard error. This sample holds only a part of the variants without activity.

B1: glmS ribozyme (parent)
chain: AUAAAAGCGCCAGAACUACAGAAAUGUAGUUGACGAGGAGGAGGUUUAUCGAAUUUUCGGCGGAUGCCUCCAAA

Variants of: B1
Assay: self-cleavage kobs at 2500 uM GlcN6P; higher = faster cleavage; RNA array
Settings: with glucosamine-6-phosphate
In short: (§1)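 A hybridised Cy3 probe tracked barcoded ribozyme variants, transcribed in situ by E. coli RNA polymerase on sequenced MiSeq chips, at 37 °C. The variants received 40 μM to 10 mM glucosamine-6-phosphate in HEPES/KCl/Mg(OAc)2 buffer. kobs came from decay fits and kcat and KM from weighted Michaelis–Menten fits.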

self-cleavage kobs at 2500 uM GlcN6P, 0.000636 ± 0.00013 s⁻¹:
A12C A15G G66U C67A

self-cleavage kobs at 2500 uM GlcN6P, 6.12e-05 ± 2.7e-05 s⁻¹:
C10U U57G C67U C70U

self-cleavage kobs at 2500 uM GlcN6P, 6.3e-05 ± 3e-05 s⁻¹:
C10U G32A C70U

self-cleavage kobs at 2500 uM GlcN6P, 6.87e-05 ± 3.4e-05 s⁻¹:
C10U C16U A33U

self-cleavage kobs at 2500 uM GlcN6P, 4.03e-05 ± 1.7e-05 s⁻¹:
C10U G32U U69A

self-cleavage kobs at 2500 uM GlcN6P, 0.000242 ± 7.3e-05 s⁻¹:
G7A C50G G63C

self-cleavage kobs at 2500 uM GlcN6P, 0.000124 ± 4.3e-05 s⁻¹:
C11U C16A U56G

self-cleavage kobs at 2500 uM GlcN6P, 5.01e-05 ± 1.9e-05 s⁻¹:
C11A A14G G40U

self-cleavage kobs at 2500 uM GlcN6P, 0.00111 ± 0.00024 s⁻¹:
C11U U30G U45A

self-cleavage kobs at 2500 uM GlcN6P, 0.000105 ± 4e-05 s⁻¹:
C11U U30G U45G

self-cleavage kobs at 2500 uM GlcN6P, < 1e-05 s⁻¹:
C10A A15U A42C G44C U56A C67G C70G
C8G G9U A14U A15U A64G C70U
C8A A14G A64U
G9A G37A G38U
C8G C11A G43A
C8A U46G U55A
C8G G38A A48G U57G
G9U G13U G29C G32C A33G
G7U C16U U46G
G7A G9C A36C
C10A A15C A42C
A12G A14U U49C C50G C61U
C11A C34A G41A
C8A A12C C68U
C11U G44U U69G
G9U C16U A33U
G9U A39U A48U C50A U57C G66A
G7A G32U G60U
G7A G44U A48G
G9A G29C G37U A48G A52C C70G
G7U G13A G38U A52C A53C
G7A A14G G38A
G9U A14G U45A C67A
C8A G13C U65C
G9A A15U A48G C70G C71U
C10G C34U G37U A42G
G7C G37A G63U
G9C C10U A36U A48U C71G
C8G C58G
C10U G51C G59U C67U
G9C G37C A42U G43C C50U C67G C71A
C8U U55G U65G
A6U G37A U49C U54A
C8U G37U U54G
C10U A36G G41U G59U C68A
C8U G32U C34U C58G
C11U G40U A42U G44A
C8U C10A A39C
G7A U31A G44C
C8G A64U C70U
G7A A12G A15U G44U U45A A53C
C11A G21U A39C U46A U57C
C8G A12U A39U
G9C A39G C50U C71A
G9C C10U A15G U69G
C8U U54A C58G
C8U U54G A64U U65G
C11U A64U C68U C71U
C8A C10G A39C
G7U A12G U69A
C10G U30C G38C U47A
G7U G35C G43A A48G
C10A G29C A42G U55C U56C C70U
C11U U49C G63C
G9U G32U G38U A42U
G7U A33C G59U G60U
C8A A39C G59U A64C
C8G A33C C34U U46G U65C
C11G A12C G38U C50U
G7C A33C A36C G66U
C11U G43U U47G
C8G G29C G38C U57C
G7U G44U A53U
A6U G35U U45A U57A
C11U C16U C61U
C11G A33U U47G
A6U G35U G51U

self-cleavage kobs at 2500 uM GlcN6P, 0.000175 ± 4.1e-05 s⁻¹:
A12C G29U U65A

self-cleavage kobs at 2500 uM GlcN6P, 0.00031 ± 0.00011 s⁻¹:
C11G C50G C58A

self-cleavage kobs at 2500 uM GlcN6P, 4.13e-05 ± 1.6e-05 s⁻¹:
A12G A14C A64G

Variants of: B1
Assay: self-cleavage kobs at 10000 uM GlcN6P; higher = faster cleavage; RNA array
Settings: with glucosamine-6-phosphate
In short: as §1

self-cleavage kobs at 10000 uM GlcN6P, < 1e-05 s⁻¹:
C8A U46G U55A
G7U G13A G38U A52C A53C
G9C C10U A36U A48U C71G
C8U U55G U65G
C10A G29C A42G U55C U56C C70U

self-cleavage kobs at 10000 uM GlcN6P, 0.000443 ± 7.6e-05 s⁻¹:
A12C G29U U65A

self-cleavage kobs at 10000 uM GlcN6P, 3.41e-05 ± 1.4e-05 s⁻¹:
C10U C16U A33U
